Among the data in paper PMC6342527 are stoichiometry N values, retold here.

Holding throughout (experiment): cryo-EM structure; single-particle cryo-EM of SEC-purified channel in 20 mM Tris pH 7.5, 50 mM NaCl, 1 mM DDM, 0.1 mM CHS; 1 uM CaCl2 added (Ca2+-bound); homopentamer
In test [1] the target is chicken BEST1, residues 1-345 (BEST1_(345)) (chicken).
Test [2] has as its target chicken BEST1, residues 1-345, W287F mutant (BEST1_(345) W287F) (chicken).
Test [3] deals with chicken BEST1, residues 1-405 (BEST1_(405)) (chicken).

For the substance “chicken BEST1, residues 1-345 (BEST1_(345)) (domain or fragment)”, the stoichiometry N in test [1] is 5.
For the substance “chicken BEST1, residues 1-345, W287F mutant (BEST1_(345) W287F) (domain or fragment)”, the stoichiometry N in test [2] came out at 5.
As to “chicken BEST1, residues 1-405 (BEST1_(405)) (domain or fragment)”, in test [3], the stoichiometry N was found to be 5.

The term stoichiometry N denotes the number of molecules, sites or subunits per partner or assembly.
